Key:
[1] = target: T1, RSV prefusion F (preF), subtype B (respiratory syncytial virus subtype B); test: BLI, IgG
T1 construct: also called Prefusion subtype B

[2] = target: T2, RSV postfusion F (postF), subtype A (respiratory syncytial virus subtype A, UniProt P03420 26-513); test: BLI
T2 construct: also called Postfusion subtype A; F deltaFP

| Binder | Kd [1] [nM] | binding result [2] |
| --- | --- | --- |
| ADI-24845 (antibody, V domains shown, full-length IgG) VH: EVQLVESGGGLVKPGGSLRLSCAASGFTFSSYSMNWVRQAPGKGLEWVSSISSSSSYIYYADSVKGRFTISRDNAKNSLYLQMNSLRAEDTAVYYCARDYCSGGSCYLAAFDIWGQGTTVTVSS VL: QPVLTQPASVSGSPGQSITISCTGTSSDVGGYNYVSWYQQHPGKAPKLMIYEVSNRPSGVSNRFSGSKSGNTASLTISGLQAEDEADYYCSSYTSSSTPVVFGGGTKLTVL | 36.7 | no binding |
| ADI-19499 (antibody, V domains shown, full-length IgG; also called Ab 201) VH: EVQLLESGPGLVKPSETLSLTCTVSGGSISSSSYYWGWIRQPPGKGLEWIGSIYYSGSTYYNPSLKSRVTISVDTSKNQFSLKLSSVTAADTAVYYCAVLLYSSSSFDYWGQGTLVTVSS VL: NFMLTQPHSVSESPGKTVTISCTRSSGSIASNYVQWYQQRPGSSPTTVIYEDNQRPSGVPDRFSGSIDSSSNSASLTISGLKTEDEADYYCQSYDSSNQAVFGGGTQLTVL |  | no binding |
| ADI-25468 (antibody, V domains shown, full-length IgG) VH: QVQLVQSGAEVKKPGESLKISCKGSGYSFTSYWIGWVRQMPGKGLEWMGIIYPGDSDTRYSPSFQGQVTISADKSISTAYLQWSSLKASDTAMYYCARHVGQVYCSSTSCYTSREYYFDYWGQGTLVTVSS VL: not shown |  | no binding |
| ADI-24858 (antibody, V domains shown, full-length IgG) VH: EVQLLESGGGLVKPGGSLRLSCAASGFTFSSYSMNWVRQAPGKGLEWVSSISSSSSYIYYADSVKGRFTISRDNAKNSLYLQMNSLRAEDTAVYYCARGGYSYGYSFDYWGQGTLVTVSS VL: not shown | 26.3 | no binding |
| ADI-25548 (antibody, V domains shown, full-length IgG) VH: EVQLVESGGGLIQPGGSLRLSCAASGFTVSSNYMSWVRQAPGKGLEWVSVIYSGGSTYYADSVKGRFTISRDNSKNTLYLQMNSLRAEDTAVYYCARGPQFGVSYSSGWYSFDYWGQGTLVTVSS VL: QSVLIQPRSVSGSPGQSVTISCTGTSSDVGGYNYVSWYQQHPGKAPKLMIYDVSKRPSGVPDRFSGSKSGNTASLTISGLQAEDEADYYCCSYAGSYTFVVFGGGTKLTVL |  | no binding |
| ADI-19496 (antibody, V domains shown, full-length IgG; also called Ab 198) VH: EVQLVESGGGVVQPGGSLRLSCAASGFTFSSYGMHWVRQAPGKGLEWVAFIRYDGSNKYYADSVKGRFTISRDNSKSTLYLQMNSLRAEDTAVYYCAKDATFGYSSSWYNFDYWGQGTLVTVSS VL: not shown |  | no binding |
| ADI-22769 (antibody, V domains shown, full-length IgG) VH: QVQLVQSGGGLVQPGGSLRLSCAASGFTFSDHYMDWVRQAPGKGLEWVGRTRNKANSYTTEYAASVKGRFTISRDDSKNSLYLQMNSLKTEDTAVYYCARVGYYYYYGMDVWGQGTTVTVSS VL: not shown |  | no binding |
| ADI-19502 (antibody, V domains shown, full-length IgG) VH: EVQLVESGGGVVQPGGSLRLSCAASGFTFSSDGMHWVRQAPGKGLEWVAFIQYDGTNKYYVDSVKGRFTISRDNSKNTLYLQMNSLRAEDTAVYYCAKDQGFRYSSSWYAFDIWGQGTMVTVSS VL: not shown |  | no binding |
| ADI-22776 (antibody, V domains shown, full-length IgG) VH: EVQLLESGGGLVKPGGSLRLSCAASGFTFSDYYMSWIRQAPGKGLEWVSYISSSGSTIYYADSVKGRFTISRDNAKNSLYLQMNSLRAEDTAVYYCAREIGGSYTGGAFDIWGQGTMVTVSS VL: SYELTQPPSVSVAPGQTARITCGGNNIGSKSVHWYQQKPGQAPVLVVYDDSDRPSGIPERFSGSNSGNTATLTISRVEAGDEADYYCQVWDSSSDHVVFGGGTKVTVL |  | no binding |
| ADI-19500 (antibody, V domains shown, full-length IgG) VH: EVQLVESGGGLVQPGGSLRLSCAASGFTFSSYSMNWVRQAPGKGLEWVSYISSSSSTIYYADSVKGRFTISRDNAKNSLYLQMNSLRAEDTAVYYCARGNTVTTFLDYWGQGTLVTVSS VL: DIRLTQSPSSFSASTGDRVTITCRASQGISSYLAWYQQKPGKAPKLLIYAASTLQSGVPSRFSGSGSGTDFTLTISCLQSEDFATYYCQQYYSYPPLTFGGGTKVDIK |  | no binding |
| ADI-24823 (antibody, V domains shown, full-length IgG) VH: EVQLLESGGGLVKPGGSLRLSCAASGFTFSSYSMNWVRQAPGKGLEWVSSISSSSSYIYYADSVKGRFTISRDNAKNSLYLQMNSLRAEDTAVYYCAREGDYYGSGRPFDYWGQGTLVTVSS VL: QSVVTQPPSVSGAPGQRVTISCTGSSSNIGAGYDVHWYQQLPGTAPKLLIYGNSNRPSGVPDRFSGSKSGTSASLAITGLQAEDEADYYCQSYDSSLSVVFGGGTKLTVL | 6.03 | no binding |
| ADI-22765 (antibody, V domains shown, full-length IgG) VH: EVQLVESGGGLVKPGGSLRLSCAASGFTFSSYSMNWVRQAPGKGLEWVSSISSSSSYIYYADSVKGRFTISRDNAKNSLYLQMNSLRAEDTAVYYCARDRGDGYNYDYWGQGTLVTVSS VL: QPVLTQPPSVSGAPGQRVTISCTGSSSNIGAGYDVHWYQQLPGTAPKLLIYGNSNRPSGVPDRFSGSKSGTSASLAITGLQAEDEADYYCQSYDSSLSVVFGGGTKVTVL |  | no binding |
| ADI-25598 (antibody, V domains shown, full-length IgG) VH: QVQLQESGPGLVKPSETLSLTCTVSPPSISSSSYYWGWIRQPPGKGLEWIGSIYYSGSTYYNPSLKSRVTISVDTSKNQFSLKLSSVTAADTAVYYCARPDSSGAFDIWGQGTMVTVSS VL: not shown |  | no binding |
| ADI-25542 (antibody, V domains shown, full-length IgG) VH: not shown VL: QTVVTQEPSFSVSPGGTVTLTCGLSSGSVSTSYYPSWYQQTPGQAPRTLIYSTNTRSSGVPDRFSGSILGNKAALTITGAQADDESDYYCVLYMGSGIWVFGGGTKVTVL |  | no binding |
| ADI-25556 (antibody, V domains shown, full-length IgG; also called Ab 450) VH: QVQLVQSGGGLVKPGGSLRLSCAASGFTFSSYSMNWVRQAPGKGLEWVSSISSSSSYIYYADSVKGRFTISRDNAKNSLYLQMNSLRAEDTAVYYCARQRGGIAVAGTYFDLWGRGTLVTVSS VL: QSVLTQPPSVSGAPGQRVTISCTGSSSNIGAGYDVHWYQQLPGTAPKLLIYGNSNRPSGVPDRFSGSKSGTSASLAITGLQAEDEADYYCQSYDSTVVFGGGTKVTVL | 42 | no binding |
| ADI-24795 (antibody, V domains shown, full-length IgG; also called Ab 363) VH: EVQLVESGGGLVKPGGSLRLSCAASGFTFSSYSMNWVRQAPGKGLEWVSSISSSSSYIYYADSVKGRFTISRDNAKNSLYLQMNSLRAEDTAVYYCARVGYSSSSGAFDYWGQGTLVTVSS VL: QSVLTQPPSVSGAPGQRVTISCTGSSSNIGAGYDVHWYQQLPGTAPKLLIYGNSNRPSGVPDRFSGSKSGTSASLAITGLQAEDEADYYCQSYDSSLSGSVFGGGTKVTVL | 34.2 | no binding |
| ADI-22758 (antibody, V domains shown, full-length IgG) VH: QVQLVESGGGLVKPGGSLRLSCAASGFSISSYSMNWVRQAPGKGLEWVSSISGSSSYIYYGDSVKGRFTISRDNARNSLYLQMNSLRAEDTAVYYCARGDIAAAGTITYYFAHWGQGTLVTVSS VL: QSVLTQPPSVSGAPGQRVTISCTGSSSNIGAGYDVHWYQQLTGTAPKLLIFGNNNRPSGVPDRFSGSKSGTSASLAITGLQAEDEADYYCQSYDSSLSGAVFGGGTQLTVL |  | no binding |

— patent publication US20260258115A1 (MAPP BIOPHARMACEUTICAL, published 2026)
